Reference: publication PMC6079011, “Salvage of the 5-deoxyribose byproduct of radical SAM enzymes” (Nature Communications, 2018)

What was measured:
DrdA (aldolase) = DrdA (aldolase) (Bacillus thuringiensis, UniProt P0DTQ0); details: tag-free protein, Mn2+ site, co-crystallised with 20 equivalents DHAP, pH 7.5
[1] = target: B. thuringiensis 5-deoxyribose disposal isomerase DrdI, His6-tagged (Bacillus thuringiensis HD73-20 (BGSC 4D22)); assay: SEC; native molecular mass estimated on a Superdex 200 column, eluted with 50 mM HEPES-KOH, 50 mM KCl, pH 7.5, 10% glycerol
DEP1 (AtDEP1) = target: T1, DEP1 (AtDEP1) (Arabidopsis thaliana, UniProt Q9FN41); assay: coupled glycerol-3-phosphate dehydrogenase NADH assay; format: biochemical; details: aldol cleavage, 500 µM dRu1P, pH 8.2, 21 °C
T1 construct: gene At5g53850; C-terminal His6-tag, from cDNA clone, expressed in E. coli BL21 CodonPlus (DE3)-RIPL; class II aldolase fused to HAD phosphatase domain
T1 sequence (Q9FN41 2-507): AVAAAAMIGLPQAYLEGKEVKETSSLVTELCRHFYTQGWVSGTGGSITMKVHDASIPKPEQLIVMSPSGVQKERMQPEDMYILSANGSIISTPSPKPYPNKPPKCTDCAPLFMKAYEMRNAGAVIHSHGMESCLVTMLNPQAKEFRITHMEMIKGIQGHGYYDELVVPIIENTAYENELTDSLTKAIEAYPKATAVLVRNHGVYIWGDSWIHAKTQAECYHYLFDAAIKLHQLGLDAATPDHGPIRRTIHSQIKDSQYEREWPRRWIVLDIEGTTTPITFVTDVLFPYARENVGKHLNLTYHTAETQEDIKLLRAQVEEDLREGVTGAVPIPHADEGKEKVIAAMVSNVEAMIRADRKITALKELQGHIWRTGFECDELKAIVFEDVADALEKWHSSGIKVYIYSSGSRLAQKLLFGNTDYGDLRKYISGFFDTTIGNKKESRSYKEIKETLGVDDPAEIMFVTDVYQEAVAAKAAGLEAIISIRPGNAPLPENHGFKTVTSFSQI

[2] = substrate: Nc1ncnc2c1ncn2[C@@H]1O[C@H](COP(=O)(O)OP(=O)(O)OP(=O)(O)O)[C@@H](O)[C@H]1O; assay: coupled pyruvate kinase/lactate dehydrogenase NADH assay; format: biochemical, Bacillus thuringiensis; details: co-substrate 5-deoxyribose (500 µM), Mg2+, pH 8.0, 21 °C
Source text: coupled pyruvate kinase/lactate dehydrogenase NADH assay on DrdK (kinase)

[3] = target: the molecule itself; assay: SEC; native molecular mass estimated on a Superdex 200 column, eluted with 50 mM HEPES-KOH, 50 mM KCl, pH 7.5, 10% glycerol
[4] = substrate: C[C@H]1O[C@H](OP(=O)(O)O)[C@H](O)[C@@H]1O; assay: coupled DrdA/glycerol-3-phosphate dehydrogenase NADH assay; format: biochemical, Bacillus thuringiensis; details: pH 8.0, 21 °C
Source text: coupled DrdA/glycerol-3-phosphate dehydrogenase NADH assay on DrdI (isomerase)

[5] = target: the molecule itself; assay: crystal structure; X-ray, 1.55 Å, space group P42(1)2, one monomer per asymmetric unit; crystals from 200 mM NaCl, 28% PEG-3350, 100 mM HEPES-KOH pH 7.5, 20 °C

O=C(CO)COP(=O)(O)O [dihydroxyacetone phosphate]
X-ray crystal structure of complex (DrdA (aldolase)): we solved the co-complex structure of DHAP bound to DrdA

B. thuringiensis 5-deoxyribose disposal isomerase DrdI, His6-tagged (enzyme)
stoichiometry N [1]: 2

C[C@@H](O)[C@@H](O)C(=O)COP(=O)(O)O [5-deoxyribulose 1-phosphate]
coupled glycerol-3-phosphate dehydrogenase NADH assay (DEP1 (AtDEP1)): Recombinant DEP1 showed aldolase activity towards 5-deoxyribulose-1-phosphate

B1: B. thuringiensis 5-deoxyribose disposal kinase DrdK, His6-tagged (enzyme, UniProt P0DTQ2 1-409, looked up)
chain: MSKFTKYFLMEASDVIAYVKEKLSKFEHAKGLKCKEIGDGNLNYVFRVWDKKENMSVIVKQAGDTARISDEFKLSTNRIRIESDVLQLENELAPGLVPKVYLFDSVMNCCVMEDLSNHTILRTALINHQIFPQLADDLTTFMVNTLLLTSDVVMNHKEKKELVKNYINPELCEITEDLVYSEPFTNHNKRNELFPLNEGWIREHIYSDKELRMEVAKRKFSFMTNAQALLHGDLHTGSVFVRDDSTKVIDPEFAFYGPMGYDVGNVMANLMFAWVNADATMPPGAEKDTYMDWLQTTMVEVIDLFKKKFLDAWDIHVTEIMAKEEGFNEVYLQSVLEDTAAVTGLELIRRIVGLAKVKDITCIENEEARARAEQICLKVAKSFILRANQYRTGRSFVETLKEQSMHYAE
notes: Cloned into pET28b (XbaI/XhoI amplicon into NheI/XhoI); No step that removes the tag is described; also called 5-deoxyribose kinase; source: E. coli BL21 CodonPlus (DE3)-RIPL, purified (Ni-NTA)
Km [2]: 216 ± 63 µM
kcat [2]: 17.1 ± 2.5 s⁻¹
kcat/Km [2]: 79000 ± 26000 M⁻¹ s⁻¹
stoichiometry N [3]: 2

B2: DrdI (isomerase) (Bacillus thuringiensis serovar kurstaki str. HD73) (protein)
chain: MMEEQLIPIQWKDDALVLLDQTLLPNEIVYESFKTAESVWDAIQVMKVRGAPVIGVSAAYGVYLGVKEFAESTEEGFMDEVRKVCTYLATSRPTAVNLFWALERMESVAADNIHLSISQLKDRLLEEAKEIHREDEEINRQIGEHALTLFHDGMGVLTHCNAGALATTKYGTATAPMYLAKEKGWDLKIFSDETRPRLQGSTLTALELQRAGIDVTVITDNMAAMVMSQGKIDAVIVGCDRVAANGDIANKIGTLGVSILAKYYNIPFYVAAPTPTIDLKTPTGKEIPIEERDASEVINRFGQYSAPKESKVYNPAFDVTPHENVTAIITEKGIVKAPFTENLKKIFQ
notes: full length, N-terminal His6-tag with short linker, expressed in E. coli BL21 CodonPlus (DE3)-RIPL; dimer
Km [4]: 22 ± 7 × 10^3 µM
kcat [4]: 3.5 ± 0.7 s⁻¹
kcat/Km [4]: 160 ± 60 M⁻¹ s⁻¹

B3: B. thuringiensis aldolase DrdA, tag-free variant (enzyme)
chain: MLLQKEREEIVAYGKKMISSGLTKGTGGNISIFNREQGLVAISPSGLEYYETKPEDVVILNLDGEVIEGERKPSSELDMHLIYYRKREDINALVHTHSPYAKTIASLGWELPAVSYLIAFAGPNVRCAPYETFGTKQLADAAFEGMIDRRAVLLANHGLIAGANNIKMAFTVAEEIEFCAQIYYQTKSIGEPKLLPEDEMENLAKKFEGYGQQ
notes: also called tag-free version; His-tag-free protein; source: E. coli BL21(DE3), purified (ammonium sulfate precipitation, MonoQ anion exchange, Superdex 200 SEC)
stoichiometry N [5]: 4
